Values belong to the binder of their own block, whether it stands above or below them.
Legend:
Assay in all cases: holdup assay
Parameters in all cases: key: below the threshold = too weak to quantify, mostly under pKd 3.1 to 4
[1] = molecular target: T1, DLG3_1, Q92796
T1 sequence (Q92796 125-227, limits assumed, looked up): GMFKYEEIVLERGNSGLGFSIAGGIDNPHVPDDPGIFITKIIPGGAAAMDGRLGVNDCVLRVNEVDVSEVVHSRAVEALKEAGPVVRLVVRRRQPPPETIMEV

[2] = molecular target: T2, PDZD7_3, Q9H5P4
T2 sequence (Q9H5P4 857-944, limits assumed, looked up): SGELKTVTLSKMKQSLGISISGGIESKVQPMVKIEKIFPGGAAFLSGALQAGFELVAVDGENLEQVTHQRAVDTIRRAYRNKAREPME

[3] = molecular target: T3, LIN7B, Q9HAP6
T3 sequence (Q9HAP6 88-185, limits assumed, looked up): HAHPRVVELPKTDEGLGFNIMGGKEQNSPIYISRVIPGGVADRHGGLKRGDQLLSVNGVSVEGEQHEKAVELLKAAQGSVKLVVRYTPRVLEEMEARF

[4] = molecular target: PTPN3, P26045
Chain of PTPN3, P26045 (P26045 505-587): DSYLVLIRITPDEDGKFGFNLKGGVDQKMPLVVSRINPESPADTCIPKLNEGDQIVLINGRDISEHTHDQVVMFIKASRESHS

[5] = molecular target: IL16_1, Q14005
Chain of IL16_1, Q14005 (Q14005 210-306): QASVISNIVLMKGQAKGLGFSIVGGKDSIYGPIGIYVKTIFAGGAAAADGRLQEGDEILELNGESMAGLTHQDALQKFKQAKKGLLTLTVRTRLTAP

[6] = molecular target: T4, SHANK1, Q9Y566
T4 sequence (Q9Y566 658-767, limits assumed, looked up): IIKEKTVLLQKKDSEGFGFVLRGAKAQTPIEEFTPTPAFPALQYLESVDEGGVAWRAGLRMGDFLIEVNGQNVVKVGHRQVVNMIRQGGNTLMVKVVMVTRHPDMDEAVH

[7] = molecular target: PARD3_3, Q8TEW0
Chain of PARD3_3, Q8TEW0 (Q8TEW0 582-685): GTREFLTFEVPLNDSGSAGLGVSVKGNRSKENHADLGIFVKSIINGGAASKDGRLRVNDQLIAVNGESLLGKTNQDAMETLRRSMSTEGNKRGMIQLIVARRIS

[8] = molecular target: T5, MPDZ_12, O75970
T5 sequence (O75970 1857-1958, limits assumed, looked up): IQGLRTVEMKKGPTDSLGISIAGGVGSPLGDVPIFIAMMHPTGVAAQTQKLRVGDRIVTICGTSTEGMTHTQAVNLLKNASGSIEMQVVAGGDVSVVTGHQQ

[9] = molecular target: HTRA2, O43464
Chain of HTRA2, O43464 (O43464 355-458): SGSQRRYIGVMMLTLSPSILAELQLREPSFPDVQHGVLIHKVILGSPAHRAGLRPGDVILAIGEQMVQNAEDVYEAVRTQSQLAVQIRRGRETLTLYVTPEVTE

[10] = molecular target: T6, DFNB31_1, Q9P202
T6 sequence (Q9P202 135-233, limits assumed, looked up): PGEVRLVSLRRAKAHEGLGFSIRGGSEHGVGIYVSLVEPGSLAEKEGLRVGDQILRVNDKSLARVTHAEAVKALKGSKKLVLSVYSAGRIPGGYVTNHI

[11] = molecular target: LNX1_1, Q8TBB1
Chain of LNX1_1, Q8TBB1 (Q8TBB1 261-371): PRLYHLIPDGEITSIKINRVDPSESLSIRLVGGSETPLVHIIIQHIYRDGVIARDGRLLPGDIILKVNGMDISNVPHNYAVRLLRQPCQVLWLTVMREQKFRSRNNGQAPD

[12] = molecular target: MAGI2_4, Q86UL8
Chain of MAGI2_4, Q86UL8 (Q86UL8 772-865): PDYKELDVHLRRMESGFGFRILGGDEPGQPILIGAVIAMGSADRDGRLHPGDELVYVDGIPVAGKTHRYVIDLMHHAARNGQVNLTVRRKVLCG

[13] = molecular target: SCRIB_3, Q14160
Chain of SCRIB_3, Q14160 (Q14160 999-1103): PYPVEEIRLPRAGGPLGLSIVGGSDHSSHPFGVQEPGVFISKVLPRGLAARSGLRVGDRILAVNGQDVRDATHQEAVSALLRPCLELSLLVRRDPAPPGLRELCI

[14] = molecular target: SCRIB_2, Q14160
Chain of SCRIB_2, Q14160 (Q14160 857-960): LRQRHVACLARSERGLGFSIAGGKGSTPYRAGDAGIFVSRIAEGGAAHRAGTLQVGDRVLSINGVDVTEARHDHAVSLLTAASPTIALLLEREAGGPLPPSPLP

[15] = molecular target: T7, RHPN1, Q8TCX5
T7 sequence (Q8TCX5 508-602, limits assumed, looked up): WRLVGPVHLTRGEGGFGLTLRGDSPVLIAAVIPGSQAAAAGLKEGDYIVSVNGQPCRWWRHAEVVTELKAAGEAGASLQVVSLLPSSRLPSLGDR

[16] = molecular target: T8, ARHGAP21, Q5T5U3
T8 sequence (Q5T5U3 45-169, limits assumed, looked up): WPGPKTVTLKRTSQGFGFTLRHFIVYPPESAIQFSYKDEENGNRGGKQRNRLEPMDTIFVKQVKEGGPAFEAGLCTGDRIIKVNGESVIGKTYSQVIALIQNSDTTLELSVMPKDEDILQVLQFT

[17] = molecular target: MAST1, Q9Y2H9
Chain of MAST1, Q9Y2H9 (Q9Y2H9 962-1065): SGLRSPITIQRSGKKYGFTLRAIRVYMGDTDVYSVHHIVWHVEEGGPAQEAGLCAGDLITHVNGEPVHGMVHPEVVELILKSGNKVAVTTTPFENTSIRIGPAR

[18] = molecular target: T9, TIAM2, Q8IVF5
T9 sequence (Q8IVF5 885-986, limits assumed, looked up): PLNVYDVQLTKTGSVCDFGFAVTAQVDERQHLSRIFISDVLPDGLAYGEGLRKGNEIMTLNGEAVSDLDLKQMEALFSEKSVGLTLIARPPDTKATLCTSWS

[19] = molecular target: DLG1_1, Q12959
[20] = molecular target: LDB3, O75112
Chain of LDB3, O75112 (O75112 1-94): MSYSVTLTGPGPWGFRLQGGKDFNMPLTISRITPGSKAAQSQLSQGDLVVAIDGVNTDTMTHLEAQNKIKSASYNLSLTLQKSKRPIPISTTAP

[21] = molecular target: ARHGEF12, Q9NZN5-2
Chain of ARHGEF12, Q9NZN5-2 (Q9NZN5 other isoform, or with tags, fused parts or gaps): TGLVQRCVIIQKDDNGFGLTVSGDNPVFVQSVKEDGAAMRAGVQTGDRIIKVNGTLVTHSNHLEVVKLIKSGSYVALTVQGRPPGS

[22] = molecular target: T10, DLG3_3, Q92796
T10 sequence (Q92796 374-475, limits assumed, looked up): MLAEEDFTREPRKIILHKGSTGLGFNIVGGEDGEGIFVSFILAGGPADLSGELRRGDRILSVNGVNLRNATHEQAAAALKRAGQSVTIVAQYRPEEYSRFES

[23] = molecular target: T11, MPP7, Q5T2T1
T11 sequence (Q5T2T1 134-230, limits assumed, looked up): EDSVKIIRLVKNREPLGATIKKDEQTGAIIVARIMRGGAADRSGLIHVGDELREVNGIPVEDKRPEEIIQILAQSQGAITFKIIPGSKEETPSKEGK

[24] = molecular target: T12, PDZRN3_1, Q9UPQ7
T12 sequence (Q9UPQ7 244-349, limits assumed, looked up): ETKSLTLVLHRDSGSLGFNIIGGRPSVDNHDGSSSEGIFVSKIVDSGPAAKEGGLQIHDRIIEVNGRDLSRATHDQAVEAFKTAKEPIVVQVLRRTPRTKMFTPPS

[25] = molecular target: GOPC, Q9HD26
[26] = modified: acetyl on K at position -1 from the C-terminal residue
[27] = plain residues with an end cap or a label only (N-terminal biotin on a linker: ado-ado)

pKd [1, 26]: below the threshold | pKd [2, 26]: 5.82 | pKd [3, 26]: 3.57 | pKd [4, 26]: 4.2 | pKd [5, 26]: 3.84 | pKd [6, 26]: 4.18 | pKd [7, 26]: 3.97 | pKd [8, 26]: below the threshold | pKd [9, 26]: below the threshold | pKd [10, 26]: 3.68 | pKd [11, 26]: 3.61 | pKd [12, 26]: 3.87 | pKd [13, 26]: 3.74 | pKd [14, 26]: below the threshold | pKd [15, 26]: 4.65 | pKd [16, 26]: below the threshold | pKd [17, 26]: 4.66 | pKd [18, 26]: below the threshold | pKd [19, 26]: 4.15 | pKd [20, 26]: below the threshold | pKd [21, 26]: 4.47 | pKd [22, 26]: below the threshold | pKd [23, 26]: below the threshold | pKd [24, 26]: below the threshold | pKd [25, 26]: 4.19
Binder: DEDQHTQITKV [PTEN_Ac, P60484]

pKd [1, 27]: below the threshold | pKd [2, 27]: below the threshold | pKd [3, 27]: below the threshold | pKd [4, 27]: 3.78 | pKd [5, 27]: below the threshold | pKd [6, 27]: below the threshold | pKd [7, 27]: 4.32 | pKd [8, 27]: below the threshold | pKd [9, 27]: below the threshold | pKd [10, 27]: below the threshold | pKd [11, 27]: below the threshold | pKd [12, 27]: below the threshold | pKd [13, 27]: 3.92 | pKd [14, 27]: below the threshold | pKd [15, 27]: below the threshold | pKd [16, 27]: 4.18 | pKd [17, 27]: 3.92 | pKd [18, 27]: below the threshold | pKd [19, 27]: below the threshold | pKd [20, 27]: below the threshold | pKd [21, 27]: below the threshold | pKd [22, 27]: below the threshold | pKd [23, 27]: below the threshold | pKd [24, 27]: below the threshold | pKd [25, 27]: below the threshold
Binder: GCQGETEDVL [PTH2R, P49190]

pKd [1, 27]: 3.56 | pKd [2, 27]: below the threshold | pKd [3, 27]: 3.65 | pKd [4, 27]: 4.07 | pKd [5, 27]: below the threshold | pKd [6, 27]: 3.59 | pKd [7, 27]: 3.54 | pKd [8, 27]: below the threshold | pKd [9, 27]: below the threshold | pKd [10, 27]: below the threshold | pKd [11, 27]: 3.64 | pKd [12, 27]: 3.53 | pKd [13, 27]: below the threshold | pKd [14, 27]: below the threshold | pKd [15, 27]: 3.79 | pKd [16, 27]: 3.54 | pKd [17, 27]: 4.03 | pKd [18, 27]: below the threshold | pKd [19, 27]: below the threshold | pKd [20, 27]: below the threshold | pKd [21, 27]: below the threshold | pKd [22, 27]: 3.65 | pKd [23, 27]: below the threshold | pKd [24, 27]: 3.49 | pKd [25, 27]: 3.49
Binder: TMQMSLKDLL [GLA, P06280]
